The chains are these.
B1: Azoarcus group I ribozyme (parent)
chain: GUGCCUUGCGCCGGGAAACCACGCAAGGGAUGGUGUCAAAUUCGGCGAAACCUAAGCGCCCGCCCGGGCGUAUGGCAACGCCGAGCCAAGCUUCGGCGCCUGCGCCGAUGAAGGUGUAGAGACUAGACGGCACCCACCUAAGGCAAACGCUAUGGUGAAGGCAUAGUCCAGGGAGUGGCGAAAGUCACACAAACCGG

This is an account of results in the RNAGym collection of RNA variant scans (doi:10.1093/molbev/msab373).

In this data set the parent is B1. Put plainly: reverse-splicing fitness (ratio to wild type); higher = more active; in vitro selection; Mg2+ level not given. The essentials: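 An in vitro group I ribozyme library with randomized positions was T7-transcribed and gel-purified. In triplicate, 10 pmol RNA in EPPS pH 7.5 was reacted with 50 pmoles of a 30-nt RNA substrate for 1 h at 37 °C across several added MgCl2 levels (1–48 mM), then stopped with EDTA. Products were reverse transcribed from a substrate-complementary primer, PCR-amplified and sequenced (HiSeq 4000). Fitness is a variant's read proportion after selection over that before, normalised to wild type.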
Regarding A111U A120G A145C C150A C169G, the reverse-splicing fitness was 0.0146.
C82U A111C A145U C169U U176G: the reverse-splicing fitness was 0.00634.
With A120U C169G U176A, the reverse-splicing fitness worked out at 0.0354.
To C82G A111U A145C C150G C169A U176G belongs 0.00713; to C82G A145U C150U C169U, 0.0123.
Then C82A A111C A120C A145U C150G C169G U176A, with 0.00819; and C82G A111G A120U A145U C150U C169U, with 0.00393.
To C82A A111G A120G A145U C169U U176A belongs 0.0204; to C82A A120U C150U C169A U176C, 0.00357.
Regarding C82U A120C A145G C150A C169A U176G, the reverse-splicing fitness is 0.00547.
Turning to C82G A145G, the reverse-splicing fitness turned out to be 0.458.
Then C82U A120U C150U C169U U176C, with 0.0038; and A111G A145U C150U U176C, with 0.697; and C82G A120C A145U C150A U176G, with 0.00735.
To C82G A120C C150A C169U U176A belongs 0.0156; to C82G A145C C150A C169U U176G, 0.00493; to C82A A111C A120U A145U C150G C169U U176C, 0.00305.
Then C82G A120C A145G C150G C169G, with 0.00813; and A111U A120C A145U C150G C169G U176G, with 0.00491.
For C82G A111G C169U U176A, the reverse-splicing fitness worked out at 0.0155.
To C82U A120G A145U C150G C169U belongs 0.00878; to C82U A111G A120C A145G C150A C169U, 0.0111; to C82A A111G A120G A145G C150A C169G, 0.00854.
Then C82G A111G A120G A145C C150A C169A U176G, with 0.00537.
To C82A A111G A120G A145C C169A U176G belongs 0.00385; to C82G A111C A120C C150A C169U U176C, 0.0153; to C82U A111G A120C A145U C150U U176C, 0.0223.
As for A111G A120G A145U U176G, the reverse-splicing fitness was 0.00952.
To A111G A120G A145U U176C belongs 0.116.
For the variant C82U C169G U176G, the reverse-splicing fitness stood at 0.00406.
Then C82A A111U A120U A145G C150U C169A U176A, with 0.00815; and C82A A111C A145U C150U C169A, with 0.00867.
Turning to C82G A111U A145G C150U C169G, the reverse-splicing fitness worked out at 0.00982.
Then C82G A111U A145U C150U C169A, with 0.00988; and C82U A120C A145G C169A U176G, with 0.00317.
Then C82U A111U A120G A145G C150G C169U U176C, with 0.0112; and C82U A111U A120G A145G C150G C169U U176G, with 0.00647.
Turning to A111G A120U A145G C150G U176G, the reverse-splicing fitness turned out to be 0.00403.
To C82G A120C C150U C169U belongs 0.0173.
To A111U A120C C150G C169U U176A belongs 0.00853; to A120C C169A U176C, 0.0233; to C82G A111G A120U A145G C169A, 0.00466.
To C82G A111U A120C A145C C150G C169G belongs 0.00735.
Consider C82A A111C A120U A145G C150G C169A, for which the reverse-splicing fitness is 0.00782.
Then C82G A120C C169G U176C, with 0.0176.
With A111C A145G C150A C169G, the reverse-splicing fitness amounted to 0.0154.
Then C82U A111C A145U C150U C169G U176C, with 0.0165; and A145G C150A C169G U176C, with 0.0517; and C82G A111C A120C A145G C150G C169A U176G, with 0.0086.
Then C82G A111U A120G A145U C150U C169U U176A, with 0.0188.
Then C82G A111U A120C A145G C150G C169G U176G, with 0.00661; and C82U A111U A145G C150A C169G U176G, with 0.00627; and C82A A111C A120U A145C C150G C169A, with 0.00359.
With A111G A145G C150A C169A, the reverse-splicing fitness stood at 0.0138.
With C82A A111G A145U C150A C169A U176A, the reverse-splicing fitness was found to be 0.0124.
Then C82A A111U A120G C150G U176C, with 0.00922; and C82G A111U A120G A145C C150A C169G, with 0.00827; and C82A A111U A120U C150A C169U U176C, with 0.00489.
For the variant C82G A111U C150U C169A U176C, the reverse-splicing fitness was found to be 0.0148.
Then C82U A111G A120C A145C C150G C169U U176A, with 0.00787; and C82A A111C A145G C150A U176G, with 0.00922.
In the case of C82G A111G A120U C150G C169A, the reverse-splicing fitness is 0.00761.
Regarding A111U A120U A145G C150G C169U, the reverse-splicing fitness turned out to be 0.0125.
To C82G A111U A120G A145U C150A U176C belongs 0.0173; to C82U A111G A120U C150A C169G U176G, 0.00213.
Then C82A A120C C150A U176A, with 0.0151; and C82U A111G A120C A145C C150U C169A U176A, with 0.00891; and C82U A111U A120G A145C C169U U176C, with 0.0108.
Consider C82U A111C A120C C150G U176A, for which the reverse-splicing fitness was 0.00528.
Then C82A A120C U176C, with 0.056; and C82G A111U, with 0.387; and A145U C150A C169G U176G, with 0.00588.
Then C82U A111C A120C A145G C150G C169A, with 0.0079.
Take A111G A120G A145U C150U C169G U176G: the reverse-splicing fitness stood at 0.00556.
Then C82G A111G A120U A145G C150U C169U U176G, with 0.00229; and C82U A111G C150G C169A U176G, with 0.00562; and C82G A111C A145C C169A U176C, with 0.015.
To C82A C150U U176G belongs 0.069.
Take C82G A111U A120C A145U C150A C169U U176A: the reverse-splicing fitness turned out to be 0.0146.
For C82G A111C A120C A145U C150U C169U U176A, the reverse-splicing fitness is 0.015.
To C82U A111C C150G C169G belongs 0.00661; to C82U A111G A120G A145G C150U C169G U176G, 0.00444.
For the variant C82A A120C C150A C169A U176A, the reverse-splicing fitness was 0.0213.
